In patent publication US20240218057A1 (ROCKEFELLER UNIVERSITY, published 2024):

B1: C971 (antibody, V domains shown)
VH: EVQLVESGGGLVKPGGSLRLSCAASGFTFNNAWMTWVRQAPGKGLEWVGRIKSKTDGGTTDYGTPAKGRFTISRDDSKNTLYLQMKSLRTEDTAVYYCTTVDVQGIWELLENDAFDIWGQGTMVTVSS
VL: EIVLTQSPGTLSLSPGERATLSCRATQAISSTYLAWYQQKPGQAPRLLIYGAFSRAPGIPDRFSGSGSETDFTLTISRLEPEDFAVYYCQQSDRSPFTFGPGTKVDIK
notes: IgG; V domains only
B2: C990 (antibody, V domains shown)
VH: EVQLVESGGGLVRPGGSLRLSCAASGFTVGSNFMSWVRQAPGKGLEWVSLIYSGGGTHYAESVKGRFTISRDKSKNTLYLQMNSLRAEDTAVYYCANQGYYYYMDVWGKGTTVTVS
VL: QSALTQPASVSGSPGQSITISCTGTSSDVGAYNYVSWHQHHPGKAPKLIIYDVSNRPSGVSNRFSGSKSGNTASLTISGLQAEDEADYYCTSYTNTTTPWVFGGGTKLTVL
notes: IgG; V domains only
B3: C958 (antibody, V domains shown)
VH: EVQLVQSGAEVKKPGDSLKISCKGSGYSFISHWIAWVRQKPGKGLEWMGIIHPGDSDTRYSPSIQGQVTISADRFITTAYLQWSSLQASDTAMYYCARRGSSWEIDHWGQGTLVTVSS
VL: QSVLTQPPSASGTPGQRVTISCSGSSSNIGSYTVNWYHQVPGTAPKVLIYGNTQRPSGVPDRFSGSKSGTSASLAISGLQSEDEGDYYCAAWDDSLDGWMFGGGTTLTVL
notes: IgG; V domains only
B4: C976 (antibody, V domains shown)
VH: EVQLVESGGALIQPGGSLRLSCAASGFTVSSNDMTWVRQAPGKGLEWVSVIYTGGGTYHADSAKGRFIISRHNSKNTLSLQMNDLRAEDTAVYYCARLTMTTYYFDSWGQGTLVTVSS
VL: SYELTQPPSVSLAPGQTARITCGGNGIGSKSVHWYQQKPGRAPVLVVYDDSVRPSGTPARFSGANSGNTATLTISRVEAGDEADYYCQVWDSFRDHQDWVFGGGTKLTVL
notes: IgG; V domains only
B5: C959 (antibody, V domains shown)
VH: QVQLQESGPGLVKPSETLSLNCNVSGGSISNYYWSWIRQPPGKGLEWIGFISYSGSTDYNPSLKSRVIISIDTSKKHFSLNLSSVTAADTAVYFCARHYDILTALSWFDPWGQGTLVTVSS
VL: QSVLTQPPSVSAAPGQTVTISCSGSSSNIRNNFVSWYQQFPGTAPKLLIYDNNKRPSGIPDRFSGSKSGTSATLGITGLQTGDEADYYCGTWDSSPSACWVFGAGTKLTV
notes: IgG; V domains only
B6: C992 (antibody, V domains shown)
VH: QVQLQESGPGLVKPSQTLSLTCTVSGGSISNGGYFWTWIRQHPVKGLEWIGYIYYSGSPHYNPSLKSRLSISLDTFKNQFSLNLSSVTAADTAVYYCARGDTFGRGYYFDFWGQGTLVTVSS
VL: SYELTQPPSVSVAPGQTARITCGGNNIGTNSMHWYQQKPGQAPVLVVFDDSDRPSGIPERFSGSNSGNTATLTISRVEAGDEADYHCQVWDRSSDRPWVFGGGTKLTVL
notes: IgG; V domains only
B7: C975 (antibody, V domains shown)
VH: EVQLVESGGDLTQPGGSLRLSCAASGFTFSSYDMHWVRQATGKGLEWVSGIGTSGDTYYADSVKGRFTISRENAKNSLFLQMNNLRAGDTATYYCARTEYAWGSYRSYWYFDLWGRGTLVTVSS
VL: DIQMTQSPSSLSASVGDRVTITCRTSQTISTYLNWYQQKPGKAPKVLIYAASSLQSGVPSRFSGSGSGTDFTLTISSLQPEDFATYFCQQSYSAPPWTFGPGTKVEIK
notes: IgG; V domains only
B8: C956 (antibody, V domains shown)
VH: EVQLVESGGGLVQPGRSLRLSCTGSEFTFGDFSMSWFRQAPGKGLEWVGFIRRKADGGTTEYAASVRGRFTISRDDSKSIAYLVMNSLKSEDTAVYYCTRAWIPTPHDYWGQGVLVTVSS
VL: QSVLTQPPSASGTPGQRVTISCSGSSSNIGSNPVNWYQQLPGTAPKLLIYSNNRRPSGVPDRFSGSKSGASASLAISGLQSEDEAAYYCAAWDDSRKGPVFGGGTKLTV
notes: IgG; V domains only
B9: C957 (antibody, V domains shown)
VH: EVQLVESGGGLVQPGRSLRLSCTASGFTFADFSMTWFRQAPGKGLEWVGFIRREADGGTTEYAASVRGRFTISRDDSKGIAYLLMNSLKSEDTAMYYCSRAWIPTPHDYWGQGTLVTVSS
VL: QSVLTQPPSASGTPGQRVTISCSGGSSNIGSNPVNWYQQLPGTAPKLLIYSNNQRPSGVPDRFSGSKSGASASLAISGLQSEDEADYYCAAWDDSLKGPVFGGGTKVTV
notes: IgG; V domains only
B10: C967 (antibody, V domains shown)
VH: QVQLVESGGGVVQPGRSLRLSCAASGFTFRIYAMHWVRQAPGKGLEWVAIIWNDGSKQYYADSMKGRFTISRDNSKNTLYLQMNSLRDEDTALYYCAREGVALAGNGVDGFDIWGQGTMVTVSS
VL: DIQMTQSPSSLSASVGDRVTITCRASQTISTFLNWYRQIPGKAPKLLIYAASSLQSGVPSRFSGSGSGTDFTLTISSLQPEDFATYYCQQTYSTPYTFGRGTKLEIK
notes: IgG; V domains only
B11: C968 (antibody, V domains shown)
VH: QVQLVESGGGVVQPGRSLRLSCAASGFTFRIYAMHWVRQAPGKGLEWVAIIWNDGNKKDYVDSVKGRFTISRDNSRNTVYLQMNSLRVDEDTAVYYCAREGVAVGGNGVDGFDMWGQGTMVTVSS
VL: DIQMTQSPSSLSSSVGDRVTITCRASQSIGIYLNWYQQKPGKVPNLLIYAASTLQTGAPSRFSGSGSGTDFILSISSLQPEDFATYYCQQTYSVPYTFGQGTKLEIK
notes: IgG; V domains only
B12: C965 (antibody, V domains shown)
VH: EVQLVESGGGLVKPGRSLRLSCSASGFTFGDYAMTWFRQAPGKGLQWVGFIRSKPFGGTTQYAASVKGRFTISRDDSNNVAYLQMNSLKTEDTGVYYCTRLRQVQGVPGYYFDQWGQGALVTVSS
VL: EIVMTQSPATLSVSPGERATLSCRASQSVSSNLAWYQQKPGQAPRLLIYGASIRATGIPARFSGSGSGTEFTLTISSLQSEDFVVYYCQEYDNWFAFGGGTKVEIK
notes: IgG; V domains only
B13: C964 (antibody, V domains shown)
VH: EVQLVESGGGLVQPGRSLRLSCAASGFTFDDYGMHWVRQAPGKGLEWVSGISWNSGSIAYAEFVKGRFTISRDNAKNSLYLQMNSLRTEDTALYYCAKAVPTSCYVFCALDIWGQGTMVTVSS
VL: DIQMTQSPSSLSASVGDRVTITCRASQGISNYLAWYQQSPGKVPKLLIYAASTLQSGVPSRFSGSGSGTDFTLTISSLQPEDVATYYCQKYNSGPALTFGGGTKVEIK
notes: IgG; V domains only
B14: C960 (antibody, V domains shown)
VH: QVQLVESGGGVVQPGRSLTLSCTASGFTFNRFAMFWVRQAPGKGLEWVAVISFDGSYEHYAESVKGRFAIFRDNPKNTLYLQMNSLRAEDTAVYYCAKSPINYCANGVCYPDSWGQGTLVTVSS
VL: NFMLTQPHSVSESPGKTVTISCTGSSGSIANNYVQWYQQRPGSAPTTVIFEDTQRPSGVPDRFSGSIDSSSNSASLNISGLKPEDEADYYCQSFDVNSRWVFGGGTKLTVL
notes: IgG; V domains only
B15: C989 (antibody, V domains shown)
VH: QVQLVQSGPEVKKPGSSVKVSCKASGGNFNSYTITWVRQAPGHGLEWMGRIIPTLGVANYALNFQDRITITADKSTSTAYMDLSSLRSEDTAVYYCARETGYSGFLAVAYMDVWGNGTTVTVSS
VL: QSVLTQPPSVSGAPGQRVTISCTGSSSNVGAGYDVHWYQQLPGTAPKLLIYRNNNRPSGVPDRFSGSKSGSSASLDITGLQAEDEADYYCQSYDSSLSDSVFGGGTKLTV
notes: IgG; V domains only
B16: C963 (antibody, V domains shown)
VH: QVQLVQSGAEVKKPGSSVRVSCKASGGTFSSFTITWVRQAPGQGLEWMGRIIPNLNIPNYAQRFQGRITITAEKSTSTAYLELSSLRSEDTAVYYCARGVGYSGSGSNWYFDLWGRGTLVTVSS
VL: QSVLTQPPSVSGAPGQRVTISCTGSSSNIGAGYDVHWYQQLPGTAPKLLISGHINRPSGVPDRFSGSTSGTSASLAITGLQAEDEADYYCQSYDSSLSDSVFGGGTKLTV
notes: IgG; V domains only
B17: C969 (antibody, V domains shown)
VH: QVQLQESGPGLVKPSETLSLTCTVSGGSISSYYWSWIRQPPGKGLEWIGYIYYSGSTNYNPSLKSRVTISVDTSKNQFSLKLSSVTAADTAVYYCARLLSTEWLFNWFDPWGQGTLVTVSS
VL: not shown
notes: IgG; V domains only
B18: C955 (antibody, V domains shown)
VH: QVQLQQWGAGLLKPSETLSLTCAVYGGTFSGYSWTWIRQPPGKGLDWIGEINHSGSTNYNPSLKSRVTISVDTSKNQFSLKLSSVTAADTAVYYCARAGFGFVITSRSGTDPLFDYWGQGTLVTVSS
VL: QSVLTQPPSVSGAPGQRVTISCTGSSSNIGAGYDVHWYQQLPGTAPKVLIYGNNNRPSGVPDRFSGSKSGTSASLAITGLQAEDEADYYCQSYDTSLSGSRVFGGGTKLTVL
notes: IgG; V domains only
B19: C954 (antibody, V domains shown)
VH: QVQLVQSGAEVKKPGSSVKVSCKASGDTFTNYAFSWMRQAPGQGLEWMGRIIPILGIVKYSQKFQDRVRISADKSTSTAYMDLSSLRSEDTAMYYCARDSEFSTSWFSRGYHGMDVWGQGTTVTVSS
VL: DIVMTQSPLSLPVTPGEPASISCRSSQSLLHGDGYNYLDWYLQKPGQSPHLLIYLGSNRTSGVSDRFSGSGSGTDFTLKISRVEAEDVGVYYCMQALQTPPTFGGGTKVEIK
notes: IgG; V domains only
B20: C972 (antibody, V domains shown)
VH: EVQLVESGGGLVQPGGSLRLSCAASEFIVSRNYMSWVRQAPGKGLEWVSLIYPGGSTYYPDSVKGRFTISRDNSKNTLYLQMNSLRGEDTAVYYCARDLGDSRLDYWGQGALVTVSS
VL: DIQLTQSPSFLSASVGDRVTITCRASQGISSYLAWYQQDPGKAPKLLIYAASTLQSGVPSRFSGSGSGTEFTLTISSLQPEDFATYYCQQLDSYPPGYSFGQGTKLEIK
notes: IgG; V domains only
B21: C966 (antibody, V domains shown)
VH: EVQLVESGGGLIQPGGSLRLSCAASGFTFSSYDMHWVRQVTGKGLEWVSAIGTAGDRYYLDSVKGRFTISRENAKNSLHLQMNNLRVGDTAVYYCARASGVLTTHFDSWGRGTLVTVSS
VL: DIQMTQSPSSLSASVGDRVTITCRASQSIGRHLSWHQQKLGKAPKLLIYSASSLQSGVPSRFSGSGSGTDFTLTISSLQPEDFATYYCQQSYETPPWTFGQGTKVEIK
notes: IgG; V domains only
B22: C962 (antibody, V domains shown)
VH: EVQLVESGGGLVQPGGSLRLSCTASRLTVSSNYMNWVRQAPGKGLEWVSVIYAGGSTFYADSVKDRFTISRDNSMNTLYLQMNSLRVEDTAVYYCARLGGYRYGMDVWGQGTTVTV
VL: DIQMTQSPSSLSASVGDRVTITCQASQDISNYLNWYQQSPGKAPKLLIYDASKLETGVPSRFSGSGSGTDFTFTISSLQPEDIATYYCLQYDNLPYSFGQGTKLEI
notes: IgG; V domains only
B23: C987 (antibody, V domains shown)
VH: QVQLQESGPGLVKPSETLSLTCNVSGDIINKYYWSWIRQSPGKGLEWIGYIYYSGTTYYNPSLKSRVTMSVGTSKQQFSLRLTSVTAADTAVYYCARMLSTEWSFNWFDPWGPGTLVTVSS
VL: SYELTQPPSVSVSPGQAASITCSGDKLGDKFACWYQQKPGQSPVLVIYQNDKRPTGIPERFSGSNSGNTATLTISGTQAMDEADYFCQAWDSTSASVFGTGTKVTVL
notes: IgG; V domains only

Target: T1, SARS-COV-2 RBD (SARS-COV-2, UniProt P0DTC2 319-539)
T1 construct: also called WT RBD
Assay: ELISA, RBD coated

Point of comparison: B10, EC50 3.58 ng/mL. Against it:
- B1 — 1.6-fold lower, 2.21 ng/mL
- B2 — 1.9-fold lower, 1.92 ng/mL
- B3 — within 1.5-fold, 4.02 ng/mL
- B4 — within 1.5-fold, 2.52 ng/mL
- B5 — within 1.5-fold, 4.58 ng/mL
- B6 — within 1.5-fold, 3.24 ng/mL
- B7 — within 1.5-fold, 2.88 ng/mL
- B8 — 2.3-fold lower, 1.58 ng/mL
- B9 — 1.9-fold lower, 1.93 ng/mL
- B11 — within 1.5-fold, 3.19 ng/mL
- B12 — 2.1-fold lower, 1.69 ng/mL
- B13 — within 1.5-fold, 2.79 ng/mL
- B14 — 2.2-fold lower, 1.62 ng/mL
- B15 — within 1.5-fold, 4.12 ng/mL
- B16 — within 1.5-fold, 2.96 ng/mL
- B17 — within 1.5-fold, 3.49 ng/mL
- B18 — within 1.5-fold, 2.44 ng/mL
- B19 — 2.4-fold lower, 1.48 ng/mL
- B20 — 1.6-fold lower, 2.18 ng/mL
- B21 — 1.8-fold lower, 1.97 ng/mL
- B22 — 2.1-fold lower, 1.74 ng/mL
- B23 — within 1.5-fold, 3.11 ng/mL
